Data on two substances can be found in patent US12577311.

In one assay the target is CD70-APC (UniProt P32970). The assay is described as follows: FACS binding. A general note: Flow cytometry measures light scatter and fluorescence of single cells or particles in a stream.
In assay [1] the target is CD70 on CD70+ skrc-59 ccRCC cells (UniProt P32970). The assay is described as follows: FACS binding. The settings on record: Fc fusion.
Chain of CD70 on CD70+ skrc-59 ccRCC cells (P32970 whole entry, the tested form may be a part): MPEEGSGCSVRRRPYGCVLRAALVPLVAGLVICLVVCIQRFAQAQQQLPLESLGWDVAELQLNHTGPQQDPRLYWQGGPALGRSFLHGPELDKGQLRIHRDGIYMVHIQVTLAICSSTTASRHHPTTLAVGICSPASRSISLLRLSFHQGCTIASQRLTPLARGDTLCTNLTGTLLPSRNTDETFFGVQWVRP

Chain of CD70-APC (P32970 39-193): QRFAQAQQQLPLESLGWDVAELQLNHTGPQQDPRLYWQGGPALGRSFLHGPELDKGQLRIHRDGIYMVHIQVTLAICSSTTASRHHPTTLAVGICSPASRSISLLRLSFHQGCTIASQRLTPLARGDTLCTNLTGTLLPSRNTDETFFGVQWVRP

Regarding CD27, the EC50 – broadly, the concentration that produces a half-maximal response – with CD70-APC was 0.917 µg/mL.

Regarding “anti-CD70 minibody #7 (from UniProt P01721 20-117)”, the concentration for a half-maximal effect (EC50) in assay [1] amounted to 0.114 µg/mL.
